Where two headings read alike, the source gives them in different places.

Holding throughout (test): BLI
In general terms: In BLI a coated tip is dipped into the sample, and binding shifts an interference pattern.

In test [1] the target is T1, Trop2 (human, UniProt P09758).
T1 chain: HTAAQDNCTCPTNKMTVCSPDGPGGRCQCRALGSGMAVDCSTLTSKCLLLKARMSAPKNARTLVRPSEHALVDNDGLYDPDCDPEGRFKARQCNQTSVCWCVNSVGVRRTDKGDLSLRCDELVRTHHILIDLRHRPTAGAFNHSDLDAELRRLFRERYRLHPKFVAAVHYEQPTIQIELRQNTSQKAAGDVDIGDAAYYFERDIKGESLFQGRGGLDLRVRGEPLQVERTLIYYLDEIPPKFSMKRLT

Test [2] deals with TNF-alpha (human).
Chain of TNF-alpha (human) (chain, as listed by the source): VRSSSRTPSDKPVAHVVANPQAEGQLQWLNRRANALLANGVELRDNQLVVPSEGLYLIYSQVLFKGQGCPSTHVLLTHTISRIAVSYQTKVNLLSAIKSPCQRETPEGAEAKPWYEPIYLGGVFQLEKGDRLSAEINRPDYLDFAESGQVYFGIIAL
For test [3], the target named is T2, FAP (human, UniProt Q12884).
T2 sequence (Q12884 26-760): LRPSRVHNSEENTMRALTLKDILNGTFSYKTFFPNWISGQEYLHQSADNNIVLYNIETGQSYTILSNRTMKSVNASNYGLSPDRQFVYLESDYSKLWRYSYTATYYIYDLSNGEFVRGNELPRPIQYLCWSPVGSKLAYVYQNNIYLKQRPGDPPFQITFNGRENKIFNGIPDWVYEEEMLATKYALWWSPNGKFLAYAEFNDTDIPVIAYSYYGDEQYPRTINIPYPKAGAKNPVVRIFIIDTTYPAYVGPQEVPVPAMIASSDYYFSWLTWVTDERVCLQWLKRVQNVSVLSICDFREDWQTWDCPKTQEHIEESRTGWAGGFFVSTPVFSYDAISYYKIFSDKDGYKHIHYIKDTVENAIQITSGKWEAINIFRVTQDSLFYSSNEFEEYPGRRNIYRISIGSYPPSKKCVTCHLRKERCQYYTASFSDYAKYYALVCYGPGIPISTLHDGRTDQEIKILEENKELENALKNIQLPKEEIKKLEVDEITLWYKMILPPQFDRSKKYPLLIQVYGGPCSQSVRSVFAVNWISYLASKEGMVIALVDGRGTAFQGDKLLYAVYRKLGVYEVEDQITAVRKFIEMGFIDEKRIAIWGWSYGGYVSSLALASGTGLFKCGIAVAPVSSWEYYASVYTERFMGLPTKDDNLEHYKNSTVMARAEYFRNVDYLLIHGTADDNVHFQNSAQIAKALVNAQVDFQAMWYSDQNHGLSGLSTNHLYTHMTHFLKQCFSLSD
In test [4] the target is T2, FAP. This is another data set of the same source.
The target of test [5] is TNF-alpha (human). This is another data set of the same source.
For test [6], the target named is TNF-alpha (human). This is another data set of the same source.

B1: TN01 (antibody, V domains shown)
VH: EVQLVESGGGLVQPGGSLRLSCAASGYVFTDYGMNWVRQAPGKGLEWMGWINTAYGSPDYADSVKGRFTFSLDTSKSTAYLQMNSLRAEDTAVYYCARGYRYYAMDYWGQGTLVTVSS
VL: DIQMTQSPSSLSASVGDRVTITCKASQNVGTNVAWYQQKPGKAPKALIYSASFLYSGVPYRFSGSGSGTDFTLTISSLQPEDFATYYCQQVGDYPLTFGQGTKVEIKR
Turning to B1, the Kd came out at 101 nM in test [1] and 16.5 nM in test [2].

B2: FN15 (antibody, V domains shown)
VH: EVQLVESGGGLVQPGGSLRLSCAASGYVFTDYGMNWVRQAPGKGLEWMGWINTDNGTPYYADSVKGRFTFSLDTSKSTAYLQMNSLRAEDTAVYYCARGYRSYAMDYWGQGTLVTVSS
VL: DIQMTQSPSSLSASVGDRVTITCKASQYTYNAVAWYQQKPGKAPKALIYSASFLYSGVPYRFSGSGSGTDFTLTISSLQPEDFATYYCQQSYGYLVTFGQGTKVEIKR
As for B2, the Kd in test [3] is 13.1 nM; in test [4], 2.19 nM; in test [5], 20.5 nM; in test [6], 25.7 nM.

For orientation: Kd means the equilibrium constant for the complex coming apart. A high value points to weaker binding.
